Key:
[1] = target: FGFR1 (UniProt P11362); test: phosphorylation enrichment, bacterial display (enrichment ratio); higher = better substrate or ligand; peptides without Tyr show the background
[2] = system: c-Src; test: as above
[3] = system: c-Abl (mouse); test: as above
[4] = target: Fyn (UniProt P06241); test: as above
[5] = system: AncSZ; test: as above
[6] = target: Jak2 (UniProt O60674); test: as above
[7] = target: Fes (UniProt P07332); test: as above
[8] = target: Hck (UniProt P08631); test: as above
[9] = target: MERTK (UniProt Q12866); test: as above
[10] = system: Fer (mouse); test: as above
[11] = target: FGFR3 (UniProt P22607); test: as above
[12] = target: EPHB2 (UniProt P29323); test: as above
[13] = target: EPHB1 (UniProt P54762); test: as above
[14] = target: SHP2-C SH2; test: SH2 binding enrichment of the phosphorylated peptide, bacterial display (enrichment ratio); higher = better substrate or ligand; peptides without Tyr show the background
[15] = target: Grb2 SH2 (UniProt P62993); test: as above
[16] = target: c-Src SH2; test: as above
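For SH2 binding enrichment of the phosphorylated peptide, bacterial display in this document: peptide library displayed on the E. coli surface as eCPX fusions, selected cells deep-sequenced, score is each peptide's frequency after selection divided by its frequency in the input.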
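For phosphorylation enrichment, bacterial display in this document: 11-residue human phosphosite peptides and single-mutation variants displayed on the E. coli surface, counted by deep sequencing, each peptide's frequency after selection divided by its frequency in the unselected input library; frequency after pTyr selection over input frequency; kinase dosed for 20-30% of maximal phosphorylation in three min.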

Sequence of Jak2 (O60674 whole entry, looked up): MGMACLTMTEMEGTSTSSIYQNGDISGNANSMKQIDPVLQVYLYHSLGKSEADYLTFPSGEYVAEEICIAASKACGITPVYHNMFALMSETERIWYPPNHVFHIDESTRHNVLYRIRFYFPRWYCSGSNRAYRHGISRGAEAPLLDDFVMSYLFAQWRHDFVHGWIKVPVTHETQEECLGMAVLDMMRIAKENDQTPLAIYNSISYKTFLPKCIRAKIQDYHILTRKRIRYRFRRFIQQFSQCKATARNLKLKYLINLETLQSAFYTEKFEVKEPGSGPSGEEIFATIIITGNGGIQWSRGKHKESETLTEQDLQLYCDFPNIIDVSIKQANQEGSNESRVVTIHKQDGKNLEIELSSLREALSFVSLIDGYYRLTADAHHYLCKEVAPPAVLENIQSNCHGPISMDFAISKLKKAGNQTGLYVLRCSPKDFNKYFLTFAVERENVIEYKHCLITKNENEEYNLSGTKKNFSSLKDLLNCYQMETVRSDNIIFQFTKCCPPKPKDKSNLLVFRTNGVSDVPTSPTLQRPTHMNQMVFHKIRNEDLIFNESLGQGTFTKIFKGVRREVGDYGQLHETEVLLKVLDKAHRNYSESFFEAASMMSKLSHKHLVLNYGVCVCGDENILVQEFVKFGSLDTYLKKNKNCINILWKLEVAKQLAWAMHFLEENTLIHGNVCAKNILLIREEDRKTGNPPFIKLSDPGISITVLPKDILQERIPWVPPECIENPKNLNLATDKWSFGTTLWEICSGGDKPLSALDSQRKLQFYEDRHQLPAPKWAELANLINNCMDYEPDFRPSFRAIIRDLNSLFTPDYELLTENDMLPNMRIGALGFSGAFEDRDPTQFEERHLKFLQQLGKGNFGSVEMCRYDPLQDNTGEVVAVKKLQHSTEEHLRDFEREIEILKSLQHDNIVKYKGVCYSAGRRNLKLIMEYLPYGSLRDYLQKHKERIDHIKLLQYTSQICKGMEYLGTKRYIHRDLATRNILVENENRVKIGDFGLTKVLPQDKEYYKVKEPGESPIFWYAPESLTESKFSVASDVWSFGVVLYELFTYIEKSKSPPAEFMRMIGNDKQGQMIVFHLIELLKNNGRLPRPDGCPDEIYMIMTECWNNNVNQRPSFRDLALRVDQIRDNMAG
Sequence of FGFR1 (P11362 whole entry, looked up): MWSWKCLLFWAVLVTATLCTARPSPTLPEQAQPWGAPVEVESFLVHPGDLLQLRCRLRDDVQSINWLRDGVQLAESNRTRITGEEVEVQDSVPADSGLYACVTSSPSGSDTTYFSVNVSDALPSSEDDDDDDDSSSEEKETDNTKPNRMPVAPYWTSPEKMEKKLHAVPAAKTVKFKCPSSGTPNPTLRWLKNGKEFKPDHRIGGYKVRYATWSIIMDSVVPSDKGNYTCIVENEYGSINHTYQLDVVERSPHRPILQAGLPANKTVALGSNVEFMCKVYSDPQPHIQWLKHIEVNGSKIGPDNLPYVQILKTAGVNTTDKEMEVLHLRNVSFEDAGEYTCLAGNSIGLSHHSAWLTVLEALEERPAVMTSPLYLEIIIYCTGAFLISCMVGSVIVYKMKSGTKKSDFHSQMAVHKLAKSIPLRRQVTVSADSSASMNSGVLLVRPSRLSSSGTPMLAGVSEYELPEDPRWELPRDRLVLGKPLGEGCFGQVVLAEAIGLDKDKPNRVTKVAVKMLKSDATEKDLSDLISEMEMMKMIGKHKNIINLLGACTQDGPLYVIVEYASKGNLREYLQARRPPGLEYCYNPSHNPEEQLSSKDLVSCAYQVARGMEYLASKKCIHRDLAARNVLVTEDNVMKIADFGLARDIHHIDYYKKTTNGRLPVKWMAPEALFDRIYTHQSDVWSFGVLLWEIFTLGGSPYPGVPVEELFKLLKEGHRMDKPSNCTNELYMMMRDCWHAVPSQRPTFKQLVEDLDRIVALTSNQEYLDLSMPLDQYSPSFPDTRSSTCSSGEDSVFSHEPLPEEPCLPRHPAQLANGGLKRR
Sequence of EPHB2 (P29323 whole entry, looked up): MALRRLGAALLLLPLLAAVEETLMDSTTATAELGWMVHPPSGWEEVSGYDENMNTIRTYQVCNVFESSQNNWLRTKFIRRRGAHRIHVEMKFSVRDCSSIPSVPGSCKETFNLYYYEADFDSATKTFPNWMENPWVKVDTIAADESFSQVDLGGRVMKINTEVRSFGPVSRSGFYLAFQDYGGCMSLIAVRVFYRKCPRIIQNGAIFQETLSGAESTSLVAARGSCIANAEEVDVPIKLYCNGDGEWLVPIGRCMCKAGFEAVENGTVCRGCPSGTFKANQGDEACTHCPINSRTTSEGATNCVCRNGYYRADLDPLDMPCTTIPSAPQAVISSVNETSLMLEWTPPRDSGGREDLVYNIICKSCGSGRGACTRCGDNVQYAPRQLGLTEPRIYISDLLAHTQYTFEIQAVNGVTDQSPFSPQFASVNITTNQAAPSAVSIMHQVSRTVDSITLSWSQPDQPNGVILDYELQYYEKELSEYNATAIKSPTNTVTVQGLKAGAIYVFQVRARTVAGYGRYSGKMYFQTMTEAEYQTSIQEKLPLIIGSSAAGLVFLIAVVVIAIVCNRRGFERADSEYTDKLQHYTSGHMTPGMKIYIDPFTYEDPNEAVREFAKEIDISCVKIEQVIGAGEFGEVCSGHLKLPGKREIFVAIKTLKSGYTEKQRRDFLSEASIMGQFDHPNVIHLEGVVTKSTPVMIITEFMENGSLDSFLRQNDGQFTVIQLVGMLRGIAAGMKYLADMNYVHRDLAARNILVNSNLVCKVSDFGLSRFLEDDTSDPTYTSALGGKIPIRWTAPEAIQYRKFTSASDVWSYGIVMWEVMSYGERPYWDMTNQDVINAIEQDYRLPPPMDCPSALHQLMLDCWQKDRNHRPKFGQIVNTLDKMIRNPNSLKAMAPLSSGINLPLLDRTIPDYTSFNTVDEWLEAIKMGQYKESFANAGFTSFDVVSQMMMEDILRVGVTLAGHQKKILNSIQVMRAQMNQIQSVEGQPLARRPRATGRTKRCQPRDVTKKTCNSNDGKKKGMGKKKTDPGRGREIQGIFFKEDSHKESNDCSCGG
Sequence of FGFR3 (P22607 whole entry, looked up): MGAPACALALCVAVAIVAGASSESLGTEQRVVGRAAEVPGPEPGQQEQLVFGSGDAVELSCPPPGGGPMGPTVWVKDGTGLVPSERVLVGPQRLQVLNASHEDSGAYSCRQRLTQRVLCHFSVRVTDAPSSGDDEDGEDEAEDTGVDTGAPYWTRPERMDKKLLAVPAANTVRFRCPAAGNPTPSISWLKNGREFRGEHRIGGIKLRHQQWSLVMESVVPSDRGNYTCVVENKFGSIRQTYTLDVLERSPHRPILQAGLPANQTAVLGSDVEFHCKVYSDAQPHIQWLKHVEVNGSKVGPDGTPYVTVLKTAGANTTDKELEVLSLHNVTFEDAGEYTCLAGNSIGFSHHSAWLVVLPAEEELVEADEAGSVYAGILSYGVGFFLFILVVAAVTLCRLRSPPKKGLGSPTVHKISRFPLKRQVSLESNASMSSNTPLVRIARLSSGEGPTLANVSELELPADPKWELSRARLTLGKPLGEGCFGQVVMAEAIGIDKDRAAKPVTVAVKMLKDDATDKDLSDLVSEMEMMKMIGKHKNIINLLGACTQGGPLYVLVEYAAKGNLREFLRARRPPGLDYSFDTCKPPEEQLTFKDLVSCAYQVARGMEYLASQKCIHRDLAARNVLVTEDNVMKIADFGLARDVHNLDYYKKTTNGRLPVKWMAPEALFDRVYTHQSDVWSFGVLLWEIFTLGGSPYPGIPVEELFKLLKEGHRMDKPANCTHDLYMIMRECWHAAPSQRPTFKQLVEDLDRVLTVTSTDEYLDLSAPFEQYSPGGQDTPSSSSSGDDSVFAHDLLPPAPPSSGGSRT
Sequence of Fes (P07332 whole entry, looked up): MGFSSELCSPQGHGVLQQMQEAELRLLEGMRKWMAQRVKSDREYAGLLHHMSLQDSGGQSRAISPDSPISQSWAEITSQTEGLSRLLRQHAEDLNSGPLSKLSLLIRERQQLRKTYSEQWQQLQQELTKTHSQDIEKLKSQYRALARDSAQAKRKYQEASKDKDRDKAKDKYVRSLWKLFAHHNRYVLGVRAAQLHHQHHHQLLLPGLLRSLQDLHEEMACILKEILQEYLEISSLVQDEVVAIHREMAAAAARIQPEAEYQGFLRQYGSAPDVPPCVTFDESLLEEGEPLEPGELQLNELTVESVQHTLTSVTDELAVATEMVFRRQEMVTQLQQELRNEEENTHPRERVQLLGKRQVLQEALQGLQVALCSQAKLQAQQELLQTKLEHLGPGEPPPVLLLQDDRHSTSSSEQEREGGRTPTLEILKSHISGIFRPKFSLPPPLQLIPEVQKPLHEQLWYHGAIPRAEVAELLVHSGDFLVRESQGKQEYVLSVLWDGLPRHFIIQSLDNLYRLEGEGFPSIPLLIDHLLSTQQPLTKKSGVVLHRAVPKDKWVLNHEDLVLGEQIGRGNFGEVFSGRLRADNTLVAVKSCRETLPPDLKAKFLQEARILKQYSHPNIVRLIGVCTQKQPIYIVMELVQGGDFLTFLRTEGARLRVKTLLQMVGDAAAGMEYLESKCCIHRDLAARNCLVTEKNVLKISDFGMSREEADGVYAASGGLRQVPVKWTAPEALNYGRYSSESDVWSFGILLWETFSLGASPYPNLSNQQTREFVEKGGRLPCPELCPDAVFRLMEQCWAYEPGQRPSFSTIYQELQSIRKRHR

Sequence | SH2 binding enrichment [14] | SH2 binding enrichment [15] | SH2 binding enrichment [16] | phosphorylation enrichment [1] | phosphorylation enrichment [2] | phosphorylation enrichment [3] | phosphorylation enrichment [4] | phosphorylation enrichment [5] | phosphorylation enrichment [6] | phosphorylation enrichment [7] | phosphorylation enrichment [8] | phosphorylation enrichment [9] | phosphorylation enrichment [10] | phosphorylation enrichment [11] | phosphorylation enrichment [12] | phosphorylation enrichment [13]
GREAEYSDKHG [EPHB4_Y574] | 0.618 | 0.809 | 0.402 | 0.388 | 0.405 | 0.571 | 0.773 | 0.64 | 0.582 | 0.821 | 0.354 | 0.39 | 0.472 | 0.547 | 0.44 | 0.392
GRVYVYRLSEQ [ITGAE_Y551] | 11.3 | 1.41 | 1.16 | 0.411 | 0.725 | 0.683 | 0.568 | 0.858 | 0.83 | 1.04 | 0.462 | 0.4 | 0.508 | 0.661 | 0.471 | 0.539
HAKKNYGNSSV [HDX_Y197] | 0.69 | 1.04 | 0.414 | 0.406 | 0.355 | 0.508 | 0.262 | 0.398 | 0.396 | 0.409 | 0.387 | 0.355 | 0.407 | 0.281 | 0.162 | 0.316
HEKKAYAFCGT [RPS6KA3_Y226_S227A] | 0.888 | 1.04 | 0.721 | 0.751 | 0.498 | 0.649 | 0.54 | 0.654 | 0.516 | 0.887 | 0.63 | 0.458 | 0.46 | 0.581 | 0.46 | 0.561
HELFVYKSDEN [DOCK3_Y548_C550S_YF] | 0.662 | 0.973 | 0.604 | 0.94 | 0.616 | 1.11 | 0.734 | 1.87 | 2.04 | 2 | 0.66 | 0.505 | 0.927 | 1.13 | 0.84 | 0.706
HESEIYGKVCF [CSRP3_Y57_C58G_YF] | 0.672 | 0.998 | 0.456 | 0.813 | 4.61 | 1.34 | 6.51 | 1.58 | 1.19 | 1.71 | 3.95 | 1.24 | 6.89 | 0.939 | 0.911 | 0.885
HFVFFYSFLLK [PTEN_Y178_R173H_YF] | 1.14 | 2.43 | 1.05 | 0.682 | 1.55 | 2.85 | 1.07 | 2.18 | 3.35 | 2.93 | 0.819 | 1.44 | 1.01 | 1.14 | 0.844 | 1.32
HILRVYSGVLP [PCNX4_Y999_G1000S] | 1.26 | 1.1 | 1.44 | 0.671 | 0.745 | 0.872 | 1.1 | 0.968 | 0.867 | 1.22 | 1.15 | 0.576 | 0.612 | 1.12 | 0.651 | 0.841
HKDNNYISMWF [PAPOLG_Y432_V433I] | 0.51 | 0.726 | 0.346 | 3.2 | 0.663 | 0.975 | 0.934 | 1.93 | 1.46 | 2.53 | 0.866 | 1.33 | 1.14 | 2.46 | 2.15 | 2.88
HLTNQFMQRVA [PABPC4_Y382_Y382F] | 0.733 | 1.16 | 0.591 | 0.576 | 0.541 | 0.898 | 0.437 | 0.791 | 0.697 | 0.809 | 0.722 | 0.673 | 0.527 | 0.631 | 0.35 | 0.621
HNLDFYKMTTN [FGFR3_Y648_K650M_YF] | 0.981 | 0.62 | 0.474 | 1.45 | 0.364 | 0.954 | 1.66 | 2.03 | 1.25 | 1.74 | 1.67 | 0.783 | 0.728 | 1.88 | 1.1 | 0.954
HNVAIYEGYAL [ACTC1_Y168_P166A] | 0.838 | 0.716 | 2.31 | 0.878 | 17.1 | 3.44 | 15.4 | 2.26 | 2.17 | 2.5 | 12.8 | 6.65 | 19.7 | 0.969 | 22.6 | 15.8
HNVPICEGFAL [ACTC1_Y168_Y168C_YF] | 1.16 | 0.871 | 0.555 | 0.849 | 0.621 | 1.06 | 0.75 | 1.1 | 1.15 | 1.29 | 0.708 | 0.673 | 0.59 | 0.947 | 0.704 | 0.729
HPFHVYPQPGM [BAG3_Y114] | 0.79 | 1.05 | 0.883 | 0.749 | 0.465 | 0.938 | 0.804 | 0.873 | 0.545 | 0.852 | 0.684 | 0.585 | 0.499 | 0.998 | 1.01 | 1.02
HQEPVCSVAFS [TBL1X_Y509_Y509C] | 0.591 | 1.12 | 0.646 | 1.12 | 0.794 | 1.09 | 0.658 | 1.07 | 1.17 | 2.01 | 0.69 | 0.791 | 0.874 | 1.1 | 0.654 | 0.804
HRGCLYLAIEY [TEK_Y899_Y897C] | 0.564 | 1.04 | 0.423 | 0.827 | 0.936 | 1.49 | 0.695 | 1.86 | 1.88 | 2.3 | 1.05 | 0.691 | 0.868 | 1.31 | 1.17 | 1.01

The next lines start with results.

SH2 binding enrichment [14] | SH2 binding enrichment [15] | SH2 binding enrichment [16] | Sequence | phosphorylation enrichment [1] | phosphorylation enrichment [2] | phosphorylation enrichment [3] | phosphorylation enrichment [4] | phosphorylation enrichment [5] | phosphorylation enrichment [6] | phosphorylation enrichment [7] | phosphorylation enrichment [8] | phosphorylation enrichment [9] | phosphorylation enrichment [10] | phosphorylation enrichment [11] | phosphorylation enrichment [12] | phosphorylation enrichment [13]
0.698 | 0.825 | 0.575 | GRPMDYHVSIT [OTOF_Y254_Q255H] | 0.453 | 0.4 | 0.626 | 0.456 | 0.732 | 0.83 | 0.923 | 0.479 | 0.414 | 0.559 | 0.577 | 0.453 | 0.532
0.656 | 0.767 | 0.456 | GRPMDYQVSIT [OTOF_Y254] | 0.473 | 0.449 | 0.662 | 0.403 | 0.812 | 0.727 | 0.775 | 0.417 | 0.416 | 0.508 | 0.51 | 0.624 | 0.517
0.762 | 0.874 | 0.61 | GRQGIYTENKR [GPR143_Y231_E235K] | 0.477 | 0.529 | 0.46 | 0.372 | 0.723 | 0.527 | 0.585 | 0.437 | 0.53 | 0.346 | 0.477 | 0.347 | 0.349
0.565 | 0.842 | 0.529 | GRRNTCFASIA [ACADM_Y352_Y352C_YF] | 0.377 | 0.391 | 0.556 | 0.401 | 0.665 | 0.711 | 0.691 | 0.365 | 0.413 | 0.424 | 0.405 | 0.348 | 0.383
0.41 | 0.597 | 0.458 | GSPPPYRRRKR [MBD1_Y403] | 0.464 | 0.638 | 0.55 | 0.535 | 0.665 | 0.519 | 0.605 | 0.537 | 0.593 | 0.608 | 0.601 | 0.625 | 0.451
0.789 | 0.891 | 0.395 | GVFSRYFTTFD [CLCA1_Y661_YF] | 0.468 | 0.481 | 0.679 | 0.438 | 0.954 | 1.15 | 0.959 | 0.661 | 0.393 | 0.433 | 0.631 | 0.512 | 0.458
0.874 | 0.935 | 1.21 | HDRNTYEKYLG [TF_Y666] | 0.676 | 1.82 | 0.731 | 1.41 | 2.4 | 0.453 | 0.796 | 1.4 | 0.765 | 0.668 | 0.909 | 0.759 | 0.781
0.698 | 1.14 | 0.561 | HELFVYKCDEN [DOCK3_Y548_YF] | 0.995 | 1.18 | 1.5 | 1.54 | 2.31 | 1.95 | 2.21 | 1.19 | 0.76 | 1.15 | 1.53 | 1.13 | 1.13
0.344 | 0.77 | 0.422 | HESEIYGKVCY [CSRP3_Y57_C58G] | 0.612 | 6.37 | 2.81 | 8.66 | 1.36 | 1.31 | 1.32 | 5.92 | 1.08 | 8.63 | 0.808 | 0.968 | 0.828
0.933 | 1.08 | 0.761 | HHIDFYKETTN [FGFR1_Y654_K656E_YF] | 1.02 | 0.541 | 0.575 | 1.27 | 1.07 | 0.938 | 2.36 | 1.64 | 0.556 | 0.889 | 1.14 | 2.44 | 1.5
1.73 | 1.45 | 0.43 | HHTDEYEFDEL [TGM1_Y134_YF] | 1.07 | 0.745 | 0.96 | 0.725 | 1.38 | 1.09 | 1.3 | 0.697 | 0.445 | 0.622 | 0.852 | 0.936 | 0.909
0.817 | 1.02 | 0.557 | HKDNNYVSMWF [PAPOLG_Y432] | 3.98 | 0.666 | 0.654 | 0.77 | 1.36 | 1.01 | 1.39 | 0.636 | 1.5 | 2.8 | 2.75 | 4.55 | 6.89
0.872 | 0.965 | 0.644 | HLAQRYLIWEC [SCN5A_Y694_R689H] | 0.788 | 0.503 | 0.929 | 0.953 | 1.62 | 1.02 | 1.65 | 0.79 | 0.533 | 0.616 | 1.26 | 0.944 | 1.03
0.704 | 0.711 | 1.55 | HLLRIYYDITD [MMP27_Y307_W304L] | 2.49 | 1.66 | 1.63 | 1.07 | 1.46 | 1.91 | 2.15 | 0.891 | 0.88 | 1.23 | 2.33 | 1.99 | 1.93
0.523 | 0.576 | 0.597 | HNLFSYPTKHE [MYO3A_Y1396_YF] | 0.74 | 0.531 | 0.65 | 0.631 | 0.773 | 1.01 | 0.989 | 0.874 | 0.868 | 0.624 | 0.738 | 0.624 | 0.65
0.8 | 0.723 | 0.678 | HNQDDYSFPSR [LDLR_Y845_G844D_YF] | 0.539 | 0.633 | 0.545 | 0.737 | 5.49 | 0.536 | 0.77 | 0.586 | 0.553 | 0.573 | 0.75 | 2.14 | 1.3
0.643 | 0.684 | 0.434 | HPWPRYTTRAP [FNDC1_Y1281_Q1280R] | 0.515 | 0.654 | 0.646 | 0.796 | 0.802 | 0.518 | 0.907 | 0.849 | 0.605 | 0.449 | 0.619 | 0.713 | 0.509

— the supplement of paper PMC10065799, “High-throughput profiling of sequence recognition by tyrosine kinases and SH2 domains using bacterial peptide display” (eLife, 2023)
